Paper PMC5023729

What was measured:
[1] = molecular target: FLAG-G3BP1 (human, wild type) (human) (UniProt Q13283)
[2] = molecular target: F380L/F382L double mutant G3BP1 (human) (UniProt Q13283)

Row | Substance | percentage of cells with SOD1 inclusions in which G3BP1 co-localizes (EGFP-tagged SOD1 and mCherry-tagged G3BP1 in G3BP1-null 293T cells) [1] | percentage of cells with SOD1 inclusions in which G3BP1 co-localizes (EGFP-tagged SOD1 and mCherry-tagged G3BP1 in G3BP1-null 293T cells) [2]
1 | A4V mutant SOD1-3xHA (natural protein) | 86.6% | 36.1%
2 | A4V/W32S double mutant SOD1 (natural protein) | 49.1% | 14.7%
